Molecular target: extracellular domain of the growth hormone receptor (human) (UniProt P10912)
Assay: competition ELISA, plate coated with GHR extracellular domain, inhibition of biotin-hGH binding

Sequence of UniProt P10912 (P10912 19-264): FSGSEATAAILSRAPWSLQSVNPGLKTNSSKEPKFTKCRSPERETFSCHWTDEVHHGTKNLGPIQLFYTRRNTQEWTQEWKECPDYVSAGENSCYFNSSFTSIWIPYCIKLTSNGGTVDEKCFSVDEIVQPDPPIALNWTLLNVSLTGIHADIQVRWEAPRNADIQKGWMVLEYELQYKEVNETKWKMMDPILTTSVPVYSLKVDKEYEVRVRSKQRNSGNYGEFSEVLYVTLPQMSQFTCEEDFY

IC50: 137 nM
Substance: pegvisomant (ligand)

Source: patent US20250101076A1
